{
  "source": "paper doi:10.1101/2020.10.16.343392",
  "about": "(bioRxiv, 2020)",
  "proteins": {"B1": {"name": "EfgA (enhanced formaldehyde growth protein A) from Methylorubrum extorquens PA1 (natural protein)", "chain": "MHVTIEQAEKAIQAARAKAVELGTQMCIAIVDSGGNLKAFHRMDGAWVGSIDIAQKKAKTAVFFGMKTGQIGALSQPGGSLYGIEHSNQGLITFPGGIPIVDADGEMSGAIGVSGSSVENDDAVALAGASAIGDTELPDHPWRT"}},
  "molecular_target": "the molecule itself",
  "assay": "crystal structure",
  "data": [
    {"protein": "B1", "values": [
      {"measurement": "stoichiometry N", "value": 4}
    ]}
  ]
}
